For orientation: Km means the concentration of substrate that gives half-maximal velocity.

This is an account of results in patent US6727084B1, “Cold-active beta-galactosidase, the process for its preparation and the use thereof” (Universite de Liege, priority 1999, dated 2004).

Substrate in the series: OC[C@H]1O[C@@H](O[C@H]2[C@H](O)[C@@H](O)C(O)O[C@@H]2CO)[C@H](O)[C@@H](O)[C@H]1O
Description: kinetics of LMG P-19143 β-galactosidase with lactose as substrate (galactose dehydrogenase assay). The format is biochemical, Pseudoalteromonas haloplanktis LMG P-19143. The note with it: other: lactose (1 mM to 50 mM) as substrate, 25° C., pH 7.3. The source says: The definition of enzyme activity units can be defined according to the substrate used with lactose as a substrate, the unit of activity is defined as the amount of enzyme which releases one micro-mole glucose in one minute under standard reaction conditions (temperature, pH). Another commonly used substrate is ortho-nitrophenyl-β-D galactopyranoside (ONPG) and in this case, the unit of activity is defined as the amount of enzyme which hydrolyses one micro-mole of ONPG in one minute under standard reaction conditions.
Km was also determined at 25° C. with lactose (1 mM to 50 mM) as a substrate.

B1: Pseudoalteromonas haloplanktis LMG P-19143 cold-active β-galactosidase (lac Z), native, SEQ ID NO: 2 (Pseudoalteromonas haloplanktis) (protein)
chain: MTSLQHIINRRDWENPITVQVNQVKAHSPLNGFKTIEDARENTQSQKKSLNGQWDFKLFDKPEAVDESLLYEKISKELSGDWQSITVPSNWQLHGFDKPIYCNVKYPFAVNPPFVPSDNPTGCYRTEFTITPEQLTQRNHIIFEGVNSAFHLWCNGQWVGYSQDSRLPSEFDLSELLVVGTNRIAVMVIRWSDGSYLEDQDMWWLSGIFRDVNLLTKPQSQIRDVFITPDLDACYRDATLHIKTAINAPNNYQVAVQIFDGKTSLCEPKIQSTNNKRVDEKGGWSDVVFQTIAIRSPKKWTAETPYLYRCVVSLLDEQGNTVDVEAYNIGFRKVEMLNGQLCVNGKPLLIRGVNRHEHHPENGHAVSTADMIEDIKLMKQNNFNAVRTAHYPNHPLFYELCDELGLYVVDEANIETHGMFPMGRLASDPLWAGAFMSRYTQMVERDKNHASIIIWSLGNECGHGANHDAMYGWSKSFDPSRPVQYEGGGANTTATDIICPMYSRVDTDIKDDAVPKYSIKKWLSLPGETRPLILCEYAHAMGNSLGSFDDYWQAFREYPRLQGGFIWDWVDQGLSKIDENGKHYWAYGGDFGDELNDRQFCINGLLFPDRTPHPSLFEAKYSQQHLQFTLREQNQNQNQNQYSIDVFSDYVFRHTDNEKLVWQLIQNGVCVEQGEMALNIAPQSTHTLTIKTKTAFEHGAQYYLNLDVALINDSHFANANHVMDSEQFKLINSNNLNSKSFASATEKSVISVNETDSHLSIENNTFKLVFNQQSGLIEQWLQDDTQVISSPLVDNFYRAPLDNDIGVSEVDNLDPNAWEARWSRAGIGQWQRTCSSINAVQSSVDVRITCVFNYEFNGVLQAQTQWLYTLNNTGTISLNVDVNLNDTLPPMPRIGLSTTINKQSDTKVNWLGLGPFENYPDRKSAARFGYYSLSLNELYTPYIFPTDNGLRSDCQLLSINNLIVTGAFLFAASEYSQNMLTQAKHTNELIADDCIHVHIDHQHMGVGGDDSWSPSTHKEYLLEQKNYNYSLTLTGGITT
notes: ORF of 1038 residues
For B1, the Km was found to be 2400 µM.
